In patent US6617117B1, “MAP kinases: polypeptides, polynucleotides and uses thereof” (Medical Research Council, priority 1996, dated 2003):

T1: rat SAPK3 (Rattus norvegicus, UniProt Q63538)
T1 construct: made in house; host or cells: E. coli BL21 (DE3)
T1 sequence (Q63538 1-367): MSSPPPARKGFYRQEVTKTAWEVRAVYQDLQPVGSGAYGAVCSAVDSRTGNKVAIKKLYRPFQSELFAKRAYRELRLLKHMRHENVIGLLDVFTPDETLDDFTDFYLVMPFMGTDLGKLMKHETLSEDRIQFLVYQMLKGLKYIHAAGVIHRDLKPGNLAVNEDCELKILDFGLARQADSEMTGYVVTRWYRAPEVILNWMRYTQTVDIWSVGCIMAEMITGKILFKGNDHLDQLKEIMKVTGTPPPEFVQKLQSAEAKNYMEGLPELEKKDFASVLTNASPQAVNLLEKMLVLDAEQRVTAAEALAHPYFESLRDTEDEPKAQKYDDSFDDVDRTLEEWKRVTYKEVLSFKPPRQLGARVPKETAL

T2: SAPK4 (Homo sapiens, UniProt O15264)
T2 sequence (O15264 1-365): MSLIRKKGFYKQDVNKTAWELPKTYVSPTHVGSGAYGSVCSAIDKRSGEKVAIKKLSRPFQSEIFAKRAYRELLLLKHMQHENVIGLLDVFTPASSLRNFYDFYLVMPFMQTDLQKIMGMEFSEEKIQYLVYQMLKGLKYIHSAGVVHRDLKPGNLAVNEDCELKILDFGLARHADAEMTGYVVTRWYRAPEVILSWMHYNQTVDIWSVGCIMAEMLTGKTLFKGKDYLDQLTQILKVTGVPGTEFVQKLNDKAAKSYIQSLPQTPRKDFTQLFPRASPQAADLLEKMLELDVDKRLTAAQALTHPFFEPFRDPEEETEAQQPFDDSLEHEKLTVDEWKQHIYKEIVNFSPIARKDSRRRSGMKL

B1: MAPKAP-K3: MAP kinase-activated protein kinase-3, GST fusion used as kinase substrate (protein)
chain: MDGETAEEQGGPVPPPVAPGGPGLGGAPGGRREPKKYAVTDDYQLSKQVLGLGVNGKVLECFHRRTGQKCALKLLYDSPKARQEVDHHWQASGGPHIVCILDVYENMHHGKRCLLIIMECMEGGELFSRIQERGDQAFTEREAAEIMRDIGTAIQFLHSHNIAHRDVKPENLLYTSKEKDAVLKLTDFGFAKETTQNALQTPCYTPYYVAPEVLGPEKYDKSCDMWSLGVIMYILLCGFPPFYSNTGQAISPGMKRRIRLGQYGFPNPEWSEVSEDAKQLIRLLLKTDPTERLTITQFMNHPWINQSMVVPQTPLHTARVLQEDKDHWDEVKEEMTSALATMRVDYDQVKIKDLKTSNNRLLNKRRKKQAGSSSASQGCNNQ
modifications: left off: a dimerising Fc or GST
B2: ATF2: transcription factor activation domain linked to GST, kinase substrate (protein)
chain: MSDDKPFLCTAPGCGQRFTNEDHLAVHKHKHEMTLKFGPARNDSVIVADQTPTPTRFLKNCEEVGLFNELASPFENEF
modifications: left off: a dimerising Fc or GST
B3: SAP-1: transcription factor activation domain linked to GST, kinase substrate (protein)
chain: TPSPPLSSHPDIDTDIDSVASQPMELPENLSLEPKDQDSVLLEKDKVNNSSRSKKPKGLELAPTLVITSSDPSPLGILSPSLPTASLTPAFFSQTPIILTPSPLLSSIHFWSTLSPVAPLSPARLQGANTLFQFPSVLNSHGPFTLSGLDGPSTPGPFSPDLQKT
modifications: left off: a dimerising Fc or GST
B4: c-Jun: transcription factor activation domain linked to GST, kinase substrate (protein)
chain: MTAKMETTFYDDALNASFLPSESGPYGYSNPKILKQSMTLNLADPVGSLKPHLRAKNSDLLTSPDVGLLKLASPELERLIIQSSNGHITTTPTPTQFLCPKNVTDEQEGFAEGFVRALAELHSQNTLPSVTSAAQPVNGAGMVAPAVASVAGGSGSGGFSASLHSEPPVYANLSNFNPGALSSGGGAPSYGAAG
modifications: left off: a dimerising Fc or GST

How the values were obtained:
Assay type in all cases: biochemical
[1] = biological target: T3, Xenopus homologue of SAPK2a (Xenopus laevis, UniProt P47812); assay: Substrate specificity: rate of phosphorylation by SAPK2a (Table 1); settings: substrate 1 μm; SAPK 0.15 U/ml; means ± SEM of six determinations
T3 construct: made in house; host or cells: E. coli
T3 sequence (P47812 whole entry): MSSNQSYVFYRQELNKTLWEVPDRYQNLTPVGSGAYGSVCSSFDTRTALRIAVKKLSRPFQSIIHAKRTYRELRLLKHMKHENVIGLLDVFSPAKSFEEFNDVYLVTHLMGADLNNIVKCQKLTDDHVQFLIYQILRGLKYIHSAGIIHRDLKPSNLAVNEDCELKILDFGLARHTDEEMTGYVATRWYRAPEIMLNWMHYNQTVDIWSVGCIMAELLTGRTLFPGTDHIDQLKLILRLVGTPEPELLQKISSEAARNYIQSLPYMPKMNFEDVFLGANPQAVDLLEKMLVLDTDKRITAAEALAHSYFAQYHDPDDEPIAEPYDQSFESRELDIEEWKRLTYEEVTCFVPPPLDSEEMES
Description: (§1) Experiments were carried out with the Xenopus homologue of SAPK2a, human SAPK2b and human SAPK4. The SAPKs were activated in vitro (FIG. 7) and phosphorylation of each protein was studied at a SAPK concentration of 0.15 U/ml. The results are presented as means±SEM of six determinations (two separate experiments). The data for rat SAPK3 are taken from Example 4 and Cuenda et al (1997).

[2] = biological target: T1, rat SAPK3; assay: Substrate specificity: rate of phosphorylation by SAPK3 (Tables 1 and 2); settings: for Rates of phosphorylation relative to MBP, SAPK3: substrate 1 μm, rat SAPK3 data taken from Example 4 and Cuenda et al (1997); for Rate of phosphorylation relative to MBP, SAPK3: substrate 1 μM, SAPK 0.1 U/ml
Description: as §1
(§2) Protein kinase assays. SAPK3 was assayed routinely by the phosphorylation of MBP. […] After 20 min at 30° C.
(§3) Table 2. Comparison of substrate specificities of SAPK2 and SAPK3. SAPK2 and SAPK3 were activated in vitro (FIG. 15) and phosphorylation of each protein studied at a SAPK concentration of 0.1 U/ml.

[3] = biological target: T2, SAPK4; assay: Substrate specificity: rate of phosphorylation by SAPK4 (Table 1); parameters: made in house; host or cells: E. coli BL21(DE3); settings: substrate 1 μm; SAPK 0.15 U/ml; means ± SEM of six determinations
Description: as §1
SAPK4 is assayed routinely by the phosphorylation of MBP. […] After washing and drying the papers (Alessi et al, 1995 Meth. Enzymol. 255, 279-290) ^32P radioactivity incorporated into MBP is measured.

[4] = biological target: T4, human SAPK2b (Homo sapiens, UniProt Q15759); assay: Substrate specificity: rate of phosphorylation by SAPK2b (Table 1); settings: substrate 1 μm; SAPK 0.15 U/ml; means ± SEM of six determinations
T4 construct: a number of SAPK2b clones, some of which were full-length; made in house; host or cells: E. coli BL21(DE3)
T4 sequence (Q15759 whole entry): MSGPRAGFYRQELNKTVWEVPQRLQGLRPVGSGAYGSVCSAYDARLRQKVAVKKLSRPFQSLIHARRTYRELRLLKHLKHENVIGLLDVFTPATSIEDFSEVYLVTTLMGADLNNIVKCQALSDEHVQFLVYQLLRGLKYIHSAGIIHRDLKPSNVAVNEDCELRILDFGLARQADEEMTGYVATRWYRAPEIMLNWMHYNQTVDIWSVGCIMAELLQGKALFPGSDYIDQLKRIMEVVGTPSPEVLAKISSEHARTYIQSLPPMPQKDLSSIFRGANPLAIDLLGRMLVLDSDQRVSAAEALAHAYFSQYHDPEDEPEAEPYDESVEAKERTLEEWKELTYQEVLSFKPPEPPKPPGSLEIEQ
Description: as §1

[5] = biological target: T5, SAPK2 (Xenopus homologue) (Xenopus laevis, UniProt P47812); assay: Substrate specificity: rate of phosphorylation by SAPK2 (Table 2); settings: substrate 1 μM; SAPK 0.1 U/ml
T5 construct: made in house; host or cells: E. coli
T5 sequence (P47812 whole entry): as the sequence (P47812 whole entry) above
Description: as §2, §3

Row | Molecule | Rates of phosphorylation relative to MBP, SAPK2a [1] [%] | Rates of phosphorylation relative to MBP, SAPK3 [2] [%] | Rates of phosphorylation relative to MBP, SAPK4 [3] [%] | Rates of phosphorylation relative to MBP, SAPK2b [4] [%] | Rate of phosphorylation relative to MBP, SAPK2 [5] | Rate of phosphorylation relative to MBP, SAPK3 [2]
1 | B1 | 87 ± 10 | 20 ± 6 | 18 ± 2 | 66 ± 6 | – | –
2 | B2 | 40 ± 2 | 107 ± 20 | 130 ± 2 | 62 ± 2 | 86 ± 20 | 107 ± 20
3 | B3 | 25 ± 1 | 108 ± 15 | 62 ± 5 | 27 ± 5 | 55 ± 13 | 108 ± 15
4 | B4 | 4 ± 1 | 2 ± 1 | 6 ± 2 | 7 ± 2 | 2 ± 1 | 2 ± 1
